Measurements published in patent US20230080534A1, “SEMG2 ANTIBODY AND USE THEREOF” (SHANGHAI BIOTROY BIOTECHNIQUE CO., LTD., priority 2020, published 2023).
No end group written: not given here.

What was measured:
[1] = molecular target: T1, binding between full-length SEMG2 and CD27 (Homo sapiens, UniProt P26842); assay: Peptide competition ELISA: CD27-Fc pre-incubated with peptide, added to SEMG2-coated plate; details: different concentrations of peptide co-incubated with CD27-Fc
T1 construct: the extracellular region of human CD27 protein fused to the Fe fragment of human antibody
T1 sequence (P26842 20-191 limits assumed): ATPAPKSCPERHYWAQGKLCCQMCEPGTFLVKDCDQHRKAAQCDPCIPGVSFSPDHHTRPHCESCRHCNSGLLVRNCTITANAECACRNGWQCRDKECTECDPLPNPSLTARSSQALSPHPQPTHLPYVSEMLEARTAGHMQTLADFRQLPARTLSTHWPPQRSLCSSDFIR
Description: (§1) FIG. 6 depicts the binding between SEMG2 epitope polypeptides and CD27, and its competitive inhibition of full-length SEMG2 binding to CD27. […] As shown in the figure, different concentrations of peptides are firstly co-incubated with CD27-Fc for binding, and then added into the micro-reaction plate pre-coated with SEMG2 protein. After co-incubation, the unconjugated molecules are washed off, and anti-Fc secondary antibody-HRP are then used for detecting and developing.

human CD27 = molecular target: T2, human CD27 (Homo sapiens, UniProt P26842); assay: Co-immunoprecipitation of GFP-fused SEMG2 fragments with CD27 in co-transfected HEK293 cells; type: binding; details: GFP-fused fragment co-transfected with CD27 into HEK293 cells
T2 construct: HA; expressed in transfected cells; host or cells: HEK293
T2 sequence (P26842 20-260): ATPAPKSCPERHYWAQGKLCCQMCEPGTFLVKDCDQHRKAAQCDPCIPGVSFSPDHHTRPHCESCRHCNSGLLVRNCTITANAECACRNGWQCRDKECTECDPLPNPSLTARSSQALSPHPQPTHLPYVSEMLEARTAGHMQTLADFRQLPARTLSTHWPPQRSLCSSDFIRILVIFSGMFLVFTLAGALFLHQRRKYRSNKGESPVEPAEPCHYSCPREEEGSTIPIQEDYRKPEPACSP
Description: (§2) In co-immunoprecipitation experiment, cells were lysed in IP buffer (Thermo Scientific) and Roche complete protease inhibitor for 10 minutes, followed by the addition of benzonase (sigma) for 25 minutes at room temperature. The lysate was then centrifuged at 15,000 rpm at 4° C. to remove the precipitate. The supernatant was then incubated with primary antibody slowly rotated overnight at 4° C., followed by the addition of protein A or protein G dynabeads and incubated at 4° C. for 2 hours, washed for 4 times in PBST (PBS with 0.01% Tween 20), eluted with 50 mM DTT in SDS sample buffer for 10 minutes at 100° C., separated with SDS, and immunoblotted as previously described.
To further confirm which part of SEMG-2 binds to CD27, fragments of SEMG2 protein were designed. The amino acid sequence of full-length SEMG2 protein (SEQ ID NO:1) was divided into 6 segments of sequences, fused with GFP and named as SEMG2-P1, SEMG2-P2, SEMG2-P3, SEMG2-P4, SEMG2-P5 and SEMG2-P6 (See Table 1 for specific sequences, with corresponding abbreviation as P1-P6 respectively). Plasmids expressing these amino acid sequences were co-transfected with CD27 into HEK293 cells, and co-immunoprecipitation experiments were performed to identify the main fragment of SEMG2 that binds to CD27. […]

mouse CD27 = molecular target: T3, mouse CD27 (Mus musculus, UniProt P41272); assay: Co-immunoprecipitation of GFP-fused SEMG2 fragments with mouse CD27 in co-transfected HEK293 cells; type: binding; details: GFP-fused fragment co-transfected with mouse CD27 into HEK293 cells
T3 construct: HA; expressed in transfected cells; host or cells: HEK293
T3 sequence (P41272 24-250): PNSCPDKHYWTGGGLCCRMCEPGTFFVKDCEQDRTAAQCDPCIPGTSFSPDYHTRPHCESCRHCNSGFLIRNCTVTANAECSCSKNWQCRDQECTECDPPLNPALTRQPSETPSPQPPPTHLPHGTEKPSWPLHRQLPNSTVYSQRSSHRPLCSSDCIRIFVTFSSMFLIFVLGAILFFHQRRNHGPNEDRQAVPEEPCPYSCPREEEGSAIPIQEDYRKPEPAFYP
Description: as §2
To further confirm the key amino acids in the binding between SEMG2-P5 sequence and CD27, SEMG2(497-509) fragment was selected and named as SEMG2-P7 (the specific sequence is QIEKLVEGKSQIQ, abbreviated as P7 or SP7). SEMG2-P7(497-509), SEMG2-P5(positive control), SEMG2-P4 (negative control) or SEMG2-P6 (negative control) was co-transfected with CD27 into HEK293 cells respectively, including human CD27 and mouse CD27. […] This co-immunoprecipitation experiment confirmed that SEMG2(497-509) is the main structure that binds to human and mouse CD27.

CD27 protein = molecular target: T4, CD27 protein (Homo sapiens, UniProt P26842); assay: ELISA binding of BSA-conjugated SEMG2 (497-509) polypeptides to CD27; details: versus negative BSA control
T4 construct: the extracellular region of human CD27 protein fused to the Fe fragment of human antibody
T4 sequence (P26842 20-191 limits assumed): T1 sequence (P26842 20-191 limits assumed)
Description: as §1
These mutant plasmids and CD27 expression vector were co-transfected into HEK293 cells, and the degree of GFP-fused 1-13 polypeptide variants binding to CD27 was detected by co-immunoprecipitation assay. […] Therefore, it can be seen that the amino acids at positions 497, 498, 499, 500, 501, 502, 503, 504, 505, 506 and 508 of SEMG2 have obvious effects on the binding to CD27. The peptide sequence 497-509 was coupled to BSA, and coated onto a 96-well microplate. CD27-hFc at different concentrations was used as the primary antibody to detect the ability of CD27 to bind to the peptide sequence.

Substance | inhibitory effect on the binding between full-length SEMG2 and CD27 [1] | binding to CD27 (co-immunoprecipitation) (human CD27) | binding to mouse CD27 (co-immunoprecipitation) (mouse CD27) | binding to CD27 protein on the microplate (CD27 protein)
QIEKLVEGKSQIQ (UNSURE (1)..(13) Epitope peptides) [SEMG2-P7] | can inhibit the binding | bind | bind | 
QIAKLVEGKSQ [SEMG2-derived polypeptide derivative] | can inhibit the binding |  |  | 
QIEKLVEGKSQ (UNSURE (1)..(11) Epitope peptides) | can inhibit the binding |  |  | 
BSA-conjugated human SEMG2 (497-509) polypeptide: human SEMG2 (497-509) peptide coupled to BSA (QIEKLVEGKSQIQ; also: coupled to BSA, site not given here) |  |  |  | can bind
QIEKLVEGKSQI (UNSURE (1)..(12) Epitope peptides) | can inhibit the binding |  |  | 
